Experimental data as given in PMC9482650, “Quantitative fragmentomics allow affinity mapping of interactomes” (Nature Communications, 2022).

Key:
Assay in all cases: holdup assay
Set-up in all cases: key: below the threshold = too weak to quantify, mostly under pKd 3.1 to 4
AHNAK1, Q09666 = target: AHNAK1, Q09666
DFNB31_1, Q9P202 = target: T1, DFNB31_1, Q9P202
T1 sequence (Q9P202 135-233, limits assumed, looked up): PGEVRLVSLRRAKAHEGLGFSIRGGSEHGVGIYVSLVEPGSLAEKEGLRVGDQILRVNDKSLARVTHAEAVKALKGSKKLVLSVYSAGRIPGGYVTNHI

DLG1_3, Q12959 = target: DLG1_3, Q12959
DLG1_3, Q12959, sequence (Q12959 457-571): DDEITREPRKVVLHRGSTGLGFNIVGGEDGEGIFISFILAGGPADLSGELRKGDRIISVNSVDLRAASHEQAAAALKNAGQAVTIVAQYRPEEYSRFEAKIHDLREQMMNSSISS

DLG3_1, Q92796 = target: T2, DLG3_1, Q92796
T2 sequence (Q92796 125-227, limits assumed, looked up): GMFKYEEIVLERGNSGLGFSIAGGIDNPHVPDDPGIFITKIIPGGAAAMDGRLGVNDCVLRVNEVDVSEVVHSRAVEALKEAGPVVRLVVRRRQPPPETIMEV

DLG3_2, Q92796 = target: T3, DLG3_2, Q92796
T3 sequence (Q92796 221-321, limits assumed, looked up): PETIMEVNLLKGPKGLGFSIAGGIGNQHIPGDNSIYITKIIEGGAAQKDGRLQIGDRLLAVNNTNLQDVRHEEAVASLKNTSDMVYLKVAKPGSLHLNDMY

FRMPD2_2, Q68DX3 = target: FRMPD2_2, Q68DX3
FRMPD2_2, Q68DX3, sequence (Q68DX3 944-1038): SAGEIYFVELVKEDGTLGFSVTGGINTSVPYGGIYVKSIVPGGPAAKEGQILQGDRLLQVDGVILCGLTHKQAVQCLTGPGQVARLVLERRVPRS

FRMPD2_3, Q68DX3 = target: FRMPD2_3, Q68DX3
FRMPD2_3, Q68DX3, sequence (Q68DX3 1073-1166): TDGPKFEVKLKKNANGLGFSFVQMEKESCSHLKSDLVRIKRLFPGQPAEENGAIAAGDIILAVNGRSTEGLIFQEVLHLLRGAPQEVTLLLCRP

GORASP2, Q9H8Y8 = target: GORASP2, Q9H8Y8
Inadl_10, Q8NI35 = target: Inadl_10, Q8NI35
Inadl_10, Q8NI35, sequence (Q8NI35 1673-1763): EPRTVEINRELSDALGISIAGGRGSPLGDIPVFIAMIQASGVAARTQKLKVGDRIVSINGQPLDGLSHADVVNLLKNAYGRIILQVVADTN

Inadl_3, Q8NI35 = target: Inadl_3, Q8NI35
Inadl_3, Q8NI35, sequence (Q8NI35 359-469): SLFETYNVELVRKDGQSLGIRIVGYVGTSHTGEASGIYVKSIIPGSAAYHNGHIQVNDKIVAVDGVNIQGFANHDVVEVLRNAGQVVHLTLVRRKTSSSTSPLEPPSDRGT

Inadl_9, Q8NI35 = target: Inadl_9, Q8NI35
Inadl_9, Q8NI35, sequence (Q8NI35 1530-1615): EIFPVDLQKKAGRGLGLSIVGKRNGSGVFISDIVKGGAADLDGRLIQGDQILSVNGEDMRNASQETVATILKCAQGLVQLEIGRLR

LIMK2, P53671 = target: LIMK2, P53671
LIMK2, P53671, sequence (P53671 143-248): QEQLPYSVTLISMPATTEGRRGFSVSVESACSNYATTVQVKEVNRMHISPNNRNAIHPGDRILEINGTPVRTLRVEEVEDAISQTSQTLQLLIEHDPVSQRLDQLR

LIN7A, O14910 = target: T4, LIN7A, O14910
T4 sequence (O14910 103-200, limits assumed, looked up): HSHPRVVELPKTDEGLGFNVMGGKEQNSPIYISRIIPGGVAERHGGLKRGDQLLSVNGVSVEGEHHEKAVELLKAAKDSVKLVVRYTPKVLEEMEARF

LNX1_2, Q8TBB1 = target: LNX1_2, Q8TBB1
LNX1_2, Q8TBB1, sequence (Q8TBB1 371-470): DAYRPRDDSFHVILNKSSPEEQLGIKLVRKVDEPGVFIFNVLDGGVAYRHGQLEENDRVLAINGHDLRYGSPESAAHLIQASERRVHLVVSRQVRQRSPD

MAGI1_2, Q96QZ7 = target: MAGI1_2, Q96QZ7
MAGI1_2, Q96QZ7, sequence (Q96QZ7 456-580): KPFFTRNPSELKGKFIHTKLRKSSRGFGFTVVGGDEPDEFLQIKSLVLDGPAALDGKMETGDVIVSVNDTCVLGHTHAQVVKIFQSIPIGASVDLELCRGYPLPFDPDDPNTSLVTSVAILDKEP

MAGI2_4, Q86UL8 = target: MAGI2_4, Q86UL8
MAGI2_4, Q86UL8, sequence (Q86UL8 772-865): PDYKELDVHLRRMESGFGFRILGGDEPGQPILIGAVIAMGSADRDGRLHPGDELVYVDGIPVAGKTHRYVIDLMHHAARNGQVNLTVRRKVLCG

MPDZ_5, O75970 = target: T5, MPDZ_5, O75970
T5 sequence (O75970 695-796, limits assumed, looked up): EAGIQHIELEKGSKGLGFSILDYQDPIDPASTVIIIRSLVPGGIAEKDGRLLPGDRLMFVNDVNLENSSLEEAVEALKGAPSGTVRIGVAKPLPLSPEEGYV

NHERF3_3, Q5T2W1 = target: T6, NHERF3_3, Q5T2W1
T6 sequence (Q5T2W1 238-333, limits assumed, looked up): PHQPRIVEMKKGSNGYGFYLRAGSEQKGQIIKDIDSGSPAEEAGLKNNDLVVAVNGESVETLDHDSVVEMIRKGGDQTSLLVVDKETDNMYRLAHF

NHERF4_1, Q86UT5-2 = target: NHERF4_1, Q86UT5-2
NHERF4_1, Q86UT5-2, sequence (Q86UT5 other isoform, or with tags, fused parts or gaps): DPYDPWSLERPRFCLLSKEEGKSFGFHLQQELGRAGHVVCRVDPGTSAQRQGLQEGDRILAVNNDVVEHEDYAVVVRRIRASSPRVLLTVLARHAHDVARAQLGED

PTPN13_1, Q12923 = target: T7, PTPN13_1, Q12923
T7 sequence (Q12923 1088-1188, limits assumed, looked up): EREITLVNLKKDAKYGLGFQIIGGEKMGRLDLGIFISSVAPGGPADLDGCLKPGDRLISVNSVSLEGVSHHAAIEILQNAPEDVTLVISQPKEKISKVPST

PTPN3, P26045 = target: PTPN3, P26045
PTPN3, P26045, sequence (P26045 505-587): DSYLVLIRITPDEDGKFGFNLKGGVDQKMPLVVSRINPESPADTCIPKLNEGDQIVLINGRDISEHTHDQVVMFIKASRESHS

RADIL, Q96JH8 = target: T8, RADIL, Q96JH8
T8 sequence (Q96JH8 971-1071, limits assumed, looked up): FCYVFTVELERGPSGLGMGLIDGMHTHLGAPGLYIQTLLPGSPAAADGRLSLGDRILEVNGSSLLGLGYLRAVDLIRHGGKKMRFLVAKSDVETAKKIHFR

RHPN1, Q8TCX5 = target: T9, RHPN1, Q8TCX5
T9 sequence (Q8TCX5 508-602, limits assumed, looked up): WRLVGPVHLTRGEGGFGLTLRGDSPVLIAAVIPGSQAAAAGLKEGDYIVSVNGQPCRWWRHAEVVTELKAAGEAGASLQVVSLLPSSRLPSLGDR

SCRIB_2, Q14160 = target: SCRIB_2, Q14160
SCRIB_2, Q14160, sequence (Q14160 857-960): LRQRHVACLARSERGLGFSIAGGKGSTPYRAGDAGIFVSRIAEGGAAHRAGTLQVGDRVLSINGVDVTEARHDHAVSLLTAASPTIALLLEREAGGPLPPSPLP

SNTG1, Q9NSN8 = target: T10, SNTG1, Q9NSN8
T10 sequence (Q9NSN8 52-150, limits assumed, looked up): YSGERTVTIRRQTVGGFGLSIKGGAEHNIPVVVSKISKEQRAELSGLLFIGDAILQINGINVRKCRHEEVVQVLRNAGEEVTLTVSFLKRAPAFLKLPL

SNTG2, Q9NY99 = target: T11, SNTG2, Q9NY99
T11 sequence (Q9NY99 68-166, limits assumed, looked up): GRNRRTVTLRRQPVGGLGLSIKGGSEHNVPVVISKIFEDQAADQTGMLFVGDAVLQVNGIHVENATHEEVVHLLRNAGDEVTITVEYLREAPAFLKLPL

TJP1_3, Q07157 = target: TJP1_3, Q07157
TJP1_3, Q07157, sequence (Q07157 416-512): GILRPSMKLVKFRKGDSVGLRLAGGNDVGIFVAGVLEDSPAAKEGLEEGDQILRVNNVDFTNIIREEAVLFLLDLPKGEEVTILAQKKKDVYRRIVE

[1] = plain residues with an end cap or a label only (N-terminal biotin on a linker: ado-ado)
[2] = plain residues with an end cap or a label only (N-terminal biotin on a linker: (peg)3)

AHNAK1, Q09666, sequence (Q09666 4-100): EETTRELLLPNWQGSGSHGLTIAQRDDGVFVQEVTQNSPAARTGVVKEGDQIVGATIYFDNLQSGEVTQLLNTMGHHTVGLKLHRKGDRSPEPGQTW

For RTQSSDSAYV [GJD2, Q9UKL4], the pKd (AHNAK1, Q09666; [1]) was “below the threshold”, the pKd (DFNB31_1, Q9P202; [1]) was “below the threshold” and the pKd (DLG1_3, Q12959; [1]) was “below the threshold”. For the same binder, the pKd (DLG3_1, Q92796; [1]) was “below the threshold”, the pKd (DLG3_2, Q92796; [1]) was “below the threshold” and the pKd (FRMPD2_2, Q68DX3; [1]) was “below the threshold”. For the same binder, the pKd (FRMPD2_3, Q68DX3; [1]) was 3.71, the pKd (GORASP2, Q9H8Y8; [1]) was 3.78 and the pKd (Inadl_10, Q8NI35; [1]) was “below the threshold”. The pKd (Inadl_3, Q8NI35; [1]) was “below the threshold”, the pKd (Inadl_9, Q8NI35; [1]) was 3.85 and the pKd (LIMK2, P53671; [1]) was “below the threshold”. The pKd (LIN7A, O14910; [1]) was “below the threshold”, the pKd (LNX1_2, Q8TBB1; [1]) was 4.11 and the pKd (MAGI1_2, Q96QZ7; [1]) was “below the threshold”. For the same binder, the pKd (MAGI2_4, Q86UL8; [1]) was “below the threshold”, the pKd (MPDZ_5, O75970; [1]) was “below the threshold” and the pKd (NHERF3_3, Q5T2W1; [1]) was “below the threshold”. For the same binder, the pKd (NHERF4_1, Q86UT5-2; [1]) was 3.6, the pKd (PTPN13_1, Q12923; [1]) was “below the threshold” and the pKd (PTPN3, P26045; [1]) was 3.52. For the same binder, the pKd (RADIL, Q96JH8; [1]) was 4.43, the pKd (RHPN1, Q8TCX5; [1]) was 3.84 and the pKd (SCRIB_2, Q14160; [1]) was “below the threshold”. The pKd (SNTG1, Q9NSN8; [1]) was “below the threshold”, the pKd (SNTG2, Q9NY99; [1]) was “below the threshold” and the pKd (TJP1_3, Q07157; [1]) was “below the threshold”.

In the case of YDEPTTTTSVPL [SARS-Cov2-3a, P0DTC3], the pKd (AHNAK1, Q09666; [2]) is reported as 3.77, the pKd (DFNB31_1, Q9P202; [2]) is reported as “below the threshold” and the pKd (DLG1_3, Q12959; [2]) is reported as “below the threshold”. For the same binder, the pKd (DLG3_1, Q92796; [2]) was “below the threshold”, the pKd (DLG3_2, Q92796; [2]) was “below the threshold” and the pKd (FRMPD2_2, Q68DX3; [2]) was “below the threshold”. The pKd (FRMPD2_3, Q68DX3; [2]) was “below the threshold”, the pKd (GORASP2, Q9H8Y8; [2]) was “below the threshold” and the pKd (Inadl_10, Q8NI35; [2]) was “below the threshold”. For the same binder, the pKd (Inadl_3, Q8NI35; [2]) was “below the threshold”, the pKd (Inadl_9, Q8NI35; [2]) was “below the threshold” and the pKd (LIMK2, P53671; [2]) was “below the threshold”. The pKd (LIN7A, O14910; [2]) was “below the threshold”, the pKd (LNX1_2, Q8TBB1; [2]) was “below the threshold” and the pKd (MAGI1_2, Q96QZ7; [2]) was “below the threshold”. The pKd (MAGI2_4, Q86UL8; [2]) was “below the threshold”, the pKd (MPDZ_5, O75970; [2]) was “below the threshold” and the pKd (NHERF3_3, Q5T2W1; [2]) was “below the threshold”. For the same binder, the pKd (NHERF4_1, Q86UT5-2; [2]) was 4.43, the pKd (PTPN13_1, Q12923; [2]) was “below the threshold” and the pKd (PTPN3, P26045; [2]) was “below the threshold”. The pKd (RADIL, Q96JH8; [2]) was “below the threshold”, the pKd (RHPN1, Q8TCX5; [2]) was “below the threshold” and the pKd (SCRIB_2, Q14160; [2]) was “below the threshold”. For the same binder, the pKd (SNTG1, Q9NSN8; [2]) was “below the threshold”, the pKd (SNTG2, Q9NY99; [2]) was “below the threshold” and the pKd (TJP1_3, Q07157; [2]) was “below the threshold”.

With RPGFASESKV [ADRB1, P08588] the pKd (AHNAK1, Q09666; [1]) was “below the threshold”, the pKd (DFNB31_1, Q9P202; [1]) was 4.21 and the pKd (DLG1_3, Q12959; [1]) was “below the threshold”. It also gave a pKd (DLG3_1, Q92796; [1]) of 3.62, a pKd (DLG3_2, Q92796; [1]) of 3.61 and a pKd (FRMPD2_2, Q68DX3; [1]) of 3.5. For the same binder, the pKd (FRMPD2_3, Q68DX3; [1]) was “below the threshold”, the pKd (GORASP2, Q9H8Y8; [1]) was “below the threshold” and the pKd (Inadl_10, Q8NI35; [1]) was “below the threshold”. The pKd (Inadl_3, Q8NI35; [1]) was “below the threshold”, the pKd (Inadl_9, Q8NI35; [1]) was 3.47 and the pKd (LIMK2, P53671; [1]) was “below the threshold”. The pKd (LIN7A, O14910; [1]) was “below the threshold”, the pKd (LNX1_2, Q8TBB1; [1]) was “below the threshold” and the pKd (MAGI1_2, Q96QZ7; [1]) was 3.88. For the same binder, the pKd (MAGI2_4, Q86UL8; [1]) was “below the threshold”, the pKd (MPDZ_5, O75970; [1]) was “below the threshold” and the pKd (NHERF3_3, Q5T2W1; [1]) was “below the threshold”. The pKd (NHERF4_1, Q86UT5-2; [1]) was “below the threshold”, the pKd (PTPN13_1, Q12923; [1]) was “below the threshold” and the pKd (PTPN3, P26045; [1]) was 4.32. The pKd (RADIL, Q96JH8; [1]) was “below the threshold”, the pKd (RHPN1, Q8TCX5; [1]) was 4.59 and the pKd (SCRIB_2, Q14160; [1]) was 4.04. For the same binder, the pKd (SNTG1, Q9NSN8; [1]) was 4.59, the pKd (SNTG2, Q9NY99; [1]) was 4.35 and the pKd (TJP1_3, Q07157; [1]) was “below the threshold”.
